From patent US9605283B2, “Microorganism modified for the production of 1,3-propanediol” (INSTITUT NATIONAL DES SCIENCES APPLIQUÉES, priority 2012, dated 2017)

Key:
[1] = DHB dehydrogenase activity of cytosolic enzymes (DHB-dependent reduction of NAD+); assay type: biochemical
Procedure: Activity of the cytosolic DHB dehydrogenases (Ec-Mdh, Bs-Mdh, Ll-LdhA) was assayed by following the DHB-dependent reduction of NAD^+.
The reaction mixture contained 60 mM Hepes (pH 8), 50 mM potassium chloride, 5 mM MgCl2, 10 mM NAD, (optionally, 5 mM fructose-1,6-bisphosphate (F16bP)) (all products from Sigma), and appropriate amounts of purified enzyme or cell extract. Reactions were started by adding 50 mM (L)-2,4-dihydroxybutyrate (Rhodia).
All enzymatic assays were carried out at 37° C. in 96-well flat bottomed microtiter plates in a final volume of 250 μL. The reactions were followed by the characteristic absorption of NADH at 340 nm (εNADH=6.22 mM^−1 cm^−1) or the absorbtion of DCIP at 655 nm (εDCIP=5.9 mM^−1 cm^−1) in a microplate reader (BioRad 680XR).

[2] = Malate dehydrogenase activity (natural substrate); assay type: biochemical; conditions: for Max. specific activity, malate: activity measured at 50 mM malate, Table 4
[3] = activity measured at 50 mM DHB, Table 4

| Molecule | DHB dehydrogenase activity (in words) ([1]; cytosolic wild-type enzymes) | Max. specific activity, DHB ([1]; when not saturated, activity estimated at 50 mM substrate, Table 2) [µmol/mg/min] | Max. specific activity, Natural substrate ([2]; natural substrate (L)-malate, Table 2) [µmol/mg/min] | Max. specific activity, DHB [1, 3] [µmol/mg/min] | Max. specific activity, malate [2] [µmol/mg/min] | maximum activity on DHB ([1]; text of Example 2) [µmol/mg/min] | activity on malate ([2]; text of Example 2) [µmol/mg/min] |
| --- | --- | --- | --- | --- | --- | --- | --- |
| Ec-Mdh: (L)-malate dehydrogenase of Escherichia coli, wild-type, SEQ ID No. 124 (protein, listed as Escherichia coli) MKVAVLGAAGGIGQALALLLKTQLPSGSELSLYDIAPVTPGVAVDLSHIPTAVKIKGFSGEDATPALEGADVVLISAGVARKPGMDRSDLFNVNAGIVKNLVQQVAKTCPKACIGIITNPVNTTVAIAAEVLKKAGVYDKNKLFGVTTLDIIRSNTFVAELKGKQPGEVEVPVIGGHSGVTILPLLSQVPGVSFTEQEVADLTKRIQNAGTEVVEAKAGGGSATLSMGQAAARFGLSLVRALQGEQGVVECAYVEGDGQYARFFSQPLLLGKNGVEERKSIGTLSAFEQNALEGMLDTLKKDIALGEEFVNK | no measurable DHB dehydrogenase activity | 0 | 52.5 | – | – | – | – |
| Ec-MdhR81A M85Q: E. coli malate dehydrogenase mutant R81A M85Q, SEQ ID No. 158 (protein, listed as Escherichia coli) MKVAVLGAAGGIGQALALLLKTQLPSGSELSLYDIAPVTPGVAVDLSHIPTAVKIKGFSGEDATPALEGADVVLISAGVAAKPGQDRSDLFNVNAGIVKNLVQQVAKTCPKACIGIITNPVNTTVAIAAEVLKKAGVYDKNKLFGVTTLDIIRSNTFVAELKGKQPGEVEVPVIGGHSGVTILPLLSQVPGVSFTEQEVADLTKRIQNAGTEVVEAKAGGGSATLSMGQAAARFGLSLVRALQGEQGVVECAYVEGDGQYARFFSQPLLLGKNGVEERKSIGTLSAFEQNALEGMLDTLKKDIALGEEFVNK | – | – | – | 2.98 | 0.57 | – | – |
| Ec-MdhR81A M85E: E. coli malate dehydrogenase mutant R81A M85E, SEQ ID No 160 (protein, listed as Escherichia coli) MKVAVLGAAGGIGQALALLLKTQLPSGSELSLYDIAPVTPGVAVDLSHIPTAVKIKGFSGEDATPALEGADVVLISAGVAAKPGEDRSDLFNVNAGIVKNLVQQVAKTCPKACIGIITNPVNTTVAIAAEVLKKAGVYDKNKLFGVTTLDIIRSNTFVAELKGKQPGEVEVPVIGGHSGVTILPLLSQVPGVSFTEQEVADLTKRIQNAGTEVVEAKAGGGSATLSMGQAAARFGLSLVRALQGEQGVVECAYVEGDGQYARFFSQPLLLGKNGVEERKSIGTLSAFEQNALEGMLDTLKKDIALGEEFVNK | – | – | – | 2.38 | 0.65 | – | – |
| Ec-MdhR81A: E. coli malate dehydrogenase mutant R81A, SEQ ID No. 156 (protein, listed as Escherichia coli) MKVAVLGAAGGIGQALALLLKTQLPSGSELSLYDIAPVTPGVAVDLSHIPTAVKIKGFSGEDATPALEGADVVLISAGVAAKPGMDRSDLFNVNAGIVKNLVQQVAKTCPKACIGIITNPVNTTVAIAAEVLKKAGVYDKNKLFGVTTLDIIRSNTFVAELKGKQPGEVEVPVIGGHSGVTILPLLSQVPGVSFTEQEVADLTKRIQNAGTEVVEAKAGGGSATLSMGQAAARFGLSLVRALQGEQGVVECAYVEGDGQYARFFSQPLLLGKNGVEERKSIGTLSAFEQNALEGMLDTLKKDIALGEEFVNK | – | – | – | 0.3 | 0.12 | – | – |
| Bs-MdhR87C: B. subtilis malate dehydrogenase mutant R87C, SEQ ID No. 154 (protein, listed as Bacillus subtilis) MGNTRKKVSVIGAGFTGATTAFLIAQKELADVVLVDIPQLENPTKGKALDMLEASPVQGFDAKITGTSNYEDTAGSDIVVITAGIACKPGMSRDDLVSTNEKIMRSVTQEIVKYSPDSIIVVLTNPVDAMTYAVYKESGFPKERVIGQSGVLDTARFRTFVAEELNLSVKDVTGFVLGGHGDDMVPLVRYSYAGGIPLETLIPKERIDAIVERTRKGGGEIVNLLGNGSAYYAPAASLTEMVEAILKDQRRVLPTIAYLEGEYGYEGIYLGVPTIVGGNGLEQIIELELTDYERAQLNKSVESVKNVMKVLS | – | – | – | 0.06 | 0.13 | 0.06 | 0.13 |
